The source of these data is patent US20250197513A1, “OSMR-SPECIFIC MONOCLONAL ANTIBODIES AND METHODS OF THEIR USE” (THE BOARD OF REGENTS OF THE UNIVERSITY OF TEXAS SYSTEM, priority 2021, published 2025).

This experiment concerns HEYA8 ovarian cancer cells. Nature of the experiment: In vivo efficacy and survival, intraperitoneal HEYA8-Luc+ ovarian cancer model. On the set-up: species or system athymic nude mice. The note with it: survival monitored for 100 days; antibody 10 mg/kg twice a week for 5 weeks; OSM 250 ng/kg. The procedure: To test the in vivo efficacy of anti-OSMR antibodies and overall survival efficiency post-treatment, Heya8-Luc+ cells (3×10^4 cells/animal) were intraperitoneally injected into 4-6-week-old athymic female nude mice (Nu/Nu) (Envigo, Madison, WI, USA) with a 27-gauge needle. Mice were monitored for tumor growth by bio-luminescence imaging IVIS100 and after 7 days post injection, randomly divided into 7 mice per group (efficacy testing) and 10 mice per group (survival studies). Mice were treated intraperitoneally twice weekly with Control IgG.
All the antibody clones were given at a concentration 10 mg/kg b.w twice a week for 5 weeks. All mice were euthanized at the end of 5 weeks or when moribund. Tumors were harvested and weighed, total number of tumor nodules and metastasis to distant organs were counted and imaged using IVIS100. The tumors were excised and proceeded for IHC, Western blotting and qPCR. For survival studies, the treatments were stopped after 5 weeks, and survival progression was monitored for a total of 100 days.

B1: OSM: recombinant human oncostatin M, ligand of OSMR, given with control IgG to stimulate tumor growth (protein)
chain: AAIGSCSKEYRVLLGQLQKQTDLMQDTSRLLDPYIRIQGLDVPKLREHCRERPGAFPSEETLRGLGRRGFLQTLNATLGCVLHRLADLEQRLPKAQDLERSGLNIEDLEKLQMARPNILGLRNNIYCMAQLLDNSDTAEPTKAGRGASQPPTPTPASDAFQRKLEGCRFLHGYHRFMHSVGRVFSKWGESPNRSRR
Regarding B1, the median survival was found to be 29 days.
